Reference: publication PMC4486934

System: var2CSA (PfEMP1) (Plasmodium falciparum CS2)
Assay: cell binding, microfluidic partitioning and qPCR
Conditions: 2'-fluoro pyrimidines, TBB: 20 mM HEPES pH 7.4, 150 mM NaCl, 2 mM CaCl2, room temperature (cell binding); for binding signal: CS2 vs uninfected RBCs

GGGAGCUCAGAAUAAACGCUCAAAUGUCUCCAGCUCUUGUGGCGAACCCAAGCGGGUUGACCAGAAUGCAUCAUUCGACAUGAGGCCCGGAUCCGGC [scr8.1-1]
binding signal (defines non-specific threshold, BLI in TBB): 1.24 ddCp

GGGAGCUCAGAAUAAACGCUCAACAACGGAUCACACGCAAGCGAAUCUAUGUCCUUCGGGUCUAAGGGUCGCUUUCGACAUGAGGCCCGGAUCCGGC [8.1-1]
binding signal (100 nM, P = 0.0002, BLI in …): 3.12 ddCp
Kd (apparent Kd on CS2 infected RBCs, no enrichment on DC-J, BLI in TBB): 0.014 µM
